From the Immune Epitope Database (IEDB) come the findings set out here.

Usually Kd stands for the free concentration of one partner at which half of the binding sites on the other are occupied at equilibrium, for simple one-to-one binding. A word on the IC50: it is the midpoint of a concentration-inhibition curve. Read a high IC50 as lower potency.

Some results are limits rather than exact numbers.

One assay deals with HLA-B*53:01. Nature of the assay: IEDB peptide-MHC binding, purified MHC/competitive/radioactivity; filed as Kd, often an IC50 or EC50 that approximates it; ≥ and ≤ were set here for values at or beyond the usual limits of such assays. The note with it: source organism: Dengue virus 4 Philippines/H241/1956.
The next assay has as its target HLA-A*24:02. Nature of the assay: IEDB peptide-MHC binding, purified MHC/competitive/fluorescence; ≥ and ≤ were set here for values at or beyond the usual limits of such assays.
Assay [1] concerns the target HLA-A*02:01. The assay is described as above.
The target of assay [2] is HLA-B*15:01. The assay is described as above.
Another assay deals with HLA-A*24:03. As to the kind of experiment: IEDB peptide-MHC binding, purified MHC/direct/fluorescence; filed as Kd, often an IC50 or EC50 that approximates it; ≥ and ≤ were set here for values at or beyond the usual limits of such assays. The note with it: source organism: Pseudomonas aeruginosa UCBPP-PA14.
The target of another assay is HLA-A*31:01. Described as above.
The target in another assay is HLA-A*11:01. The description is as above.
Assay [3] addresses HLA-B*07:02. Described as above.
For assay [4], the target named is HLA-A*02:01. Described as above.
Another assay has as its target HLA-A*69:01. Described as above.
Another assay concerns the target HLA-A*01:01. Described as above.
Another assay has as its target HLA-A*26:01. The assay is described as above.
Assay [5] has as its target HLA-B*15:01. The assay is described as above.
A further assay concerns the target HLA-B*40:01. The assay is described as above.
The next assay concerns the target HLA-B*27:05. The assay is described as above.
The target in another assay is HLA-B*08:01. The description is as above.
For a further assay, the target named is HLA-A*03:01. The description is as above.
In another assay the target is HLA-B*58:01. Described as above.
The target in another assay is HLA-A*68:02. As to the kind of experiment: IEDB peptide-MHC binding, purified MHC/competitive/radioactivity; filed as Kd, often an IC50 or EC50 that approximates it; ≥ and ≤ were set here for values at or beyond the usual limits of such assays.
The target in a further assay is HLA-B*44:02. Nature of the assay: IEDB peptide-MHC binding, purified MHC/direct/fluorescence; filed as Kd, often an IC50 or EC50 that approximates it; ≥ and ≤ were set here for values at or beyond the usual limits of such assays. The note with it: source organism: Shigella flexneri.
In assay [6] the target is HLA-B*07:02. Nature of the assay: IEDB peptide-MHC binding, purified MHC/competitive/radioactivity; filed as Kd, often an IC50 or EC50 that approximates it; ≥ and ≤ were set here for values at or beyond the usual limits of such assays.
A further assay concerns the target HLA-B*51:01. The assay is described as above.
In another assay the target is HLA-B*35:01. The assay is described as above. The note with it: source organism: Dengue virus 4 Philippines/H241/1956.
The mark [7] stands for this setting: source organism: Vaccinia virus Copenhagen.
The mark [8] stands for this setting: source organism: Zaire ebolavirus.
Setting [9] is: source organism: Pseudomonas aeruginosa UCBPP-PA14.
Setting [10] is: source organism: Dengue virus 4 Philippines/H241/1956.
[11] abbreviates: source organism: Shigella flexneri.
The mark [12] stands for this setting: source organism: Dengue virus 3 Martinique/1243/1999.
Where [13] appears, read: source organism: Sudan ebolavirus.
[14] abbreviates: source organism: Dengue virus 2 Jamaica/1409/1983.

For FGMFTTNIW, in the assay with HLA-B*53:01, the Kd was found to be 0.0205 µM.
As to ISIKLTDSL, the half-inhibitory concentration (IC50) with HLA-A*24:02 (setting [7]) was found to be 3.66 µM; with HLA-A*02:01 [1] (setting [7]), 7.32 µM; with HLA-B*15:01 [2] (setting [7]) it was 5.59 µM.
On to LMHNQDGLI, for which the figures for the IC50 with HLA-A*24:02 (setting [8]), with HLA-A*02:01 [1] (setting [8]) and with HLA-B*15:01 [2] (setting [8]) were 24.6 µM, 1.72 µM and 67.4 µM, respectively.
Consider ASDDLEHWQ, for which the Kd with HLA-A*24:03, with HLA-A*31:01 (setting [9]), with HLA-A*11:01 (setting [9]), in the assay with HLA-B*07:02 [3] (setting [9]), with HLA-A*02:01 [4] (setting [9]) and with HLA-A*69:01 (setting [9]) was no less than 20 µM each time. For the same sequence, the dissociation constant Kd in the assay with HLA-A*01:01 (setting [9]), with HLA-A*26:01 (setting [9]), in the assay with HLA-B*15:01 [5] (setting [9]), with HLA-B*40:01 (setting [9]), with HLA-B*27:05 (setting [9]) and with HLA-B*08:01 (setting [9]) was no less than 20 µM in each case. The equilibrium dissociation constant (Kd) with HLA-A*03:01 (setting [9]) and with HLA-B*58:01 (setting [9]) was no less than 20 µM throughout.
Consider TIAVSTANI, for which the dissociation constant Kd with HLA-A*68:02 (setting [10]) came out at 0.0256 µM.
Regarding DRLHPPNKL, the Kd in the assay with HLA-A*31:01 (setting [11]), in the assay with HLA-A*11:01 (setting [11]), with HLA-B*07:02 [3] (setting [11]), with HLA-B*44:02, with HLA-A*02:01 [4] (setting [11]) and with HLA-A*69:01 (setting [11]) was no less than 20 µM throughout. Also, the Kd is no less than 20 µM in the assay with HLA-A*01:01 (setting [11]); no less than 20 µM in the assay with HLA-A*26:01 (setting [11]); no less than 20 µM in the assay with HLA-B*15:01 [5] (setting [11]); 4.25 µM in the assay with HLA-B*40:01 (setting [11]); no less than 20 µM with HLA-B*27:05 (setting [11]); no less than 20 µM in the assay with HLA-B*08:01 (setting [11]). Besides, the Kd with HLA-A*03:01 (setting [11]) and in the assay with HLA-B*58:01 (setting [11]) was no less than 20 µM each time.
For NPNMIDKTPV, the dissociation constant (Kd) with HLA-B*07:02 [6] (source organism: Dengue virus 4 Thailand/0348/1991) is 0.402 µM.
In the case of APIQDEERDI, the results for the Kd with HLA-B*51:01 (setting [12]) and with HLA-B*07:02 [6] (setting [12]) were no less than 69.6 µM and 5.06 µM, respectively.
Regarding IPVTMTLWYM, the results for the dissociation constant (Kd) with HLA-B*07:02 [6] (setting [10]), with HLA-B*35:01 and with HLA-B*53:01 were 0.744 µM, 0.156 µM and 0.0692 µM, respectively.
With LETDLRSEF, the IC50 in the assay with HLA-B*15:01 [2] (source organism: Vaccinia virus) is 47.5 µM. That is a double-digit micromolar value.
For FVEGVSGGAW, the Kd with HLA-B*53:01 stood at 0.209 µM.
For LQSPPIREA, the half-maximal inhibitory concentration (IC50) stood at 14.3 µM with HLA-A*02:01 [1] (setting [13]) and 37.8 µM with HLA-B*15:01 [2] (setting [13]).
Take LPIRYQTPAV: the Kd was 0.198 µM with HLA-B*51:01 (setting [10]), 0.0267 µM in the assay with HLA-B*07:02 [6] (setting [10]) and 0.11 µM with HLA-B*35:01.
As to TTPFGQQRV, the Kd with HLA-A*68:02 (setting [10]) was 0.102 µM.
As to ELEKSKRAL, the Kd with HLA-A*68:02 (source organism: Homo sapiens) was no less than 54.3 µM.
With SLAIDAYPL, the Kd with HLA-B*07:02 [3] (source organism: SARS-CoV1) was no less than 33.4 µM; with HLA-A*02:01 [4] (source organism: SARS-CoV1), 0.145 µM; with HLA-A*69:01 (source organism: SARS-CoV1), 0.272 µM; with HLA-B*15:01 [5] (source organism: SARS-CoV1), 1.08 µM; in the assay with HLA-B*40:01 (source organism: SARS-CoV1), no less than 31.5 µM; with HLA-B*08:01 (source organism: SARS-CoV1) it was 9.19 µM.
For LAANAICSAV, in the assay with HLA-A*68:02 (setting [14]), the dissociation constant Kd amounted to 0.00904 µM.
As to SLAKHGEYA, the half-maximal inhibitory concentration (IC50) in the assay with HLA-A*02:01 [1] (setting [8]) is 7.2 µM; with HLA-B*15:01 [2] (setting [8]), no less than 127 µM.
Regarding TTATITPQA, the Kd with HLA-A*68:02 (source organism: Dengue virus 1 Nauru/West Pac/1974) was found to be 0.00112 µM.
As to QVMLLILCV, the equilibrium dissociation constant (Kd) in the assay with HLA-A*68:02 (setting [14]) was 1.74 µM.
For the sequence AKHGEYAPF, the IC50 was 63.1 µM in the assay with HLA-A*24:02 (setting [8]) and no less than 77.4 µM with HLA-B*15:01 [2] (setting [8]).
